In US20240166738A1 (priority 2021, published 2024):
Positions count from the first letter of the chain named.

B1: TM-9: anti-TMEM106B monoclonal antibody; CDR-H1-3 SEQ ID NO: 10, 43, 86; CDR-L1-3 SEQ ID NO: 122, 168, 186 (antibody, V domains shown)
VH: EVQLVESGGDLVKPGGSLKLSCVASGFTFSGYGMSWVRQTPDKRLEWVATISSGSFYIYYPDSVKGRLTVSRDNAKNTLYLQMSSLKSEDTAIYYCARQNFYYGCEDYWGQGTTLTVSS
VL: DIVMTQAAFSNPVTLGTSASISCRSSKSLLHSNGITYLYWYLQKPGQSPQLLIYQMSNLASGVPNRFSSSGSGTDFTLRISRVEAEDVGVYYCAQNLELPWTFGGGTKLEIK
B2: TM-21: anti-TMEM106B monoclonal antibody; CDR-H1-3 SEQ ID NO: 18, 54, 97; CDR-L1-3 SEQ ID NO: 137, 168, 201 (antibody, V domains shown)
VH: EVQLVESGGGLVKPGGSLKLSCAASGFTFSNYAMSWVRETPEKRLEWVAFISDGGGYIYYADNVKDRFTISRDNAKNNLYLQMRHLKSEDTAMYYCARDGGTGFTYWGQGTLVTVSV
VL: B1 VL with Y39F, N65D, A94V, W101Y
B3: TM-61: anti-TMEM106B monoclonal antibody; VH SEQ ID NO: 467, VL SEQ ID NO: 503 (antibody, V domains shown)
VH: QVQLQQSGAELAKPGASVKLSCKASGYTFTNYWMNWVKQRPGQGLEWIGYINPSSDYTKYNQNFKDKATLTADKSSSTAYMQLNSLTYEDSAVYYCTRWGGSRSYWYFDVWGAGTTVTVSS
VL: DIVMTQSPSSLSASAGEKVTMSCKSSQSLLNSGNQKNYLAWYQQKPGQSPKLLIYGASTRESGVPDRFTGSGSGTDFTLTISSVQAEDLAVYYCQNDSNYPFTFGGGTKLEMK
modifications: Variable Heavy Chain -- TM-61; Variable Light Chain -- TM-61
B4: TM-7: anti-TMEM106B monoclonal antibody; CDR-H1-3 SEQ ID NO: 8, 41, 84; CDR-L1-3 SEQ ID NO: 126, 166, 190 (antibody, V domains shown)
VH: EVQLQQSGPVLVKPGPPVKISCKASGFTFTDYYIHWVKLSHGKSLEWIGLVYPYNGDTDYNQKFKGKATLTVDTSSSTAYMELNSLTSEDSAVYYCARTYYANSPDYWGQGTTVTVSS
VL: B3 VL with A13V, K36R, S49P, S83N, S98H, N99S, F102L, G106A, M112L
B5: TM-60: anti-TMEM106B monoclonal antibody; VH SEQ ID NO: 413, VL SEQ ID NO: 502 (antibody, V domains shown)
VH: QVQLQQSGPELVKPGASVKLSCKASGYTFTSYDINWVKQRPGQGLEWIGWIYPRDGNTQYIEKLKGKATLTVDTSSSTAYMELHSLTSEDSAVYFCARWIFYAMDYWGQGTSVTVSS
VL: DVLMTQTPLSLPVSLGDQASISCRSSQSIVHGNGNTYLEWYLQKPGQSPKLLIYKVSNRFSGVPDRFSGSGSGTDFTLKISRVEAEDLGVYYCFQGSHLPYTFGGGTKLEIK
modifications: Variable Heavy Chain -- TM-48, TM-60; Variable Light Chain -- TM-60
B6: TM-19: anti-TMEM106B monoclonal antibody; CDR-H1-3 SEQ ID NO: 13, 53, 96; CDR-L1-3 SEQ ID NO: 136, 175, 200 (antibody, V domains shown)
VH: DVQLQQSGAELVRPGASVKLSCTASGFNIKDYYMYWVKQRPEQGLEWIGRIDPEDGDTENAPKFRGMATMTADTSSNTAYLQLNSLTSEDTAVYYCTTRIGNLYHVMDYWGHGTSVTVSS
VL: B5 VL with G32S, S48A, Y54D, S57F, L99V, Y101F, G105S
B7: TM-12: anti-TMEM106B monoclonal antibody; CDR-H1-3 SEQ ID NO: 13, 46, 89; CDR-L1-3 SEQ ID NO: 130, 169, 194 (antibody, V domains shown)
VH: EVQLQQSGAELMRPGASVKLSCTASGFNIQDYYMYWVKQRPEQGLEWIGRIDPEDGDAEYAPKFQGKATMTADTSSNTAYLQLSSLTSEDTAVYYCSTRVIYDGYYRTMDCWGQGTSVTVSS
VL: B5 VL with T7I, S28T, G32S, Q43K, Y54D, V56I, L99V
B8: TM-10: anti-TMEM106B monoclonal antibody; CDR-H1-3 SEQ ID NO: 11, 44, 87; CDR-L1-3 SEQ ID NO: 128, 169, 192 (antibody, V domains shown)
VH: QVQLQQSGAELVKPGASVKISCKGSGYAFSSYWMNWVKQRPGKGLEWIGQIYPGDGDTNYNGKFKGKATLTADKSSTTAYIHLSSLTSEDSAVYFCARWGHYDEAMDDWGQGTSVTVSS
VL: DVVMTQTPLSLPVSLGDQASISCRSSQSLVHSNGKTYLHWYVQKPGQSPKLLIYKISNRFSGVPDRFSGSGSGTDFTLKISRVEAEDLGVYFCSQITHVPWTFGGGTKLESK
B9: TM-76: anti-TMEM106B monoclonal antibody; VH SEQ ID NO: 481, VL SEQ ID NO: 516 (antibody, V domains shown)
VH: QVTLKESGPGILQPSQTLSLTCSFSGFSLSTSGMGVSWIRKPSGKGLEWLAHIFWDDDKRYNLFLKSRLTVSKDTSSNQVFLMITSVDTTDTATYYCARMGRQRDYFDYWGQGTSLTVSS
VL: QIILTQSPAIMSASLGEEITLTCSASLSISYVHWYQQKSGASPKLLIYGTSNLASGVPSRFSGSGSGTFYSLTISSVEAEDAADYYCHQWSIYRTFGGGTKLEMK
modifications: Variable Heavy Chain -- TM-76; Variable Light Chain -- TM-76
B10: TM-13: anti-TMEM106B monoclonal antibody; CDR-H1-3 SEQ ID NO: 14, 47, 90; CDR-L1-3 SEQ ID NO: 131, 171, 195 (antibody, V domains shown)
VH: QVQLQQSGAELVKPGASVKMSCKASGYTFTTFPIEWMKQSHGKGLEWIGNFHPYNDDTKYNEKFKGKATLTVDKSSSTVYLDLSRLTSDDSAVYYCARYFYGGMDYWGQGTSVTVSS
VL: DIQMTQSPASLSVSVGETVTITCRASENIYSSLGWYQQKQGESPQLLVFAATNLADGVPSRFSGSGSGTQYSLKINSLQSEDFGTYYCQHLWSIPWTFGGGTRLEIK
B11: TM-11: anti-TMEM106B monoclonal antibody; CDR-H1-3 SEQ ID NO: 12, 45, 88; CDR-L1-3 SEQ ID NO: 129, 170, 193 (antibody, V domains shown)
VH: QVQLKQSGPGQVQPSQSLSITCTVSGFSLSDYGVHWVRQSPGKGLEWLGVIWNNGNTDYNAAFISRLSINKDNSKSQVFFKMTSLQADDTAIYYCVRSLRPLHFDYWGQGTTVTVSS
VL: DIVMTQSPSSLTMSVGQKVTMHCKSSQSLLNSNNLQNYLAWYQQKPGQSPTLLVYFASIRESGVPDRFIGSGSGTDFTLTISSVQAEDLADYFCQQHYNTPFTFGSGTKLEIR
B12: TM-18: anti-TMEM106B monoclonal antibody; CDR-H1-3 SEQ ID NO: 5, 52, 95; CDR-L1-3 SEQ ID NO: 135, 174, 199 (antibody, V domains shown)
VH: EVRLQQSGPELVKPGASVKISCKTSGYTFTDYYMNWVKQSHGKSLEWIVNINPNNGDAFYNQKFKGKATLTVDKSSNTAYLDLRSLTSEDSAVYYCAREGQLRLRRVYAMDYWGQGTSVTVSS
VL: DIVLAQSPASLAVSLGQRATISCRASKSVSISVYTYVHWYQQKPGQPPKLLIYLASNLESGVPARFSGSGSGTDFTLNIHPVEEEDAATYYCQHSRELPYTFGGGTKLEIK

Molecular target: GST-TMEM106B (truncated, comprising amino acids 122-210 of SEQ ID NO:1) (Homo sapiens, UniProt Q9NUM4)
Sequence (Q9NUM4 122-210): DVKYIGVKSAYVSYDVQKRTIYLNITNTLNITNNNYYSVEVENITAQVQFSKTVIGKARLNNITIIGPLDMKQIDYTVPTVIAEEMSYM
Test: Pre-mix epitope binning of anti-TMEM106B antibodies (Carterra / Lake Pharma)
Type: binding
Set-up: key to epitope bin: Bin 1: competes for binding to the same or overlapping TMEM106B region as the TM1, TM17, TM22, TM26, TM79, and/or TM82 antibodies; Bin 2: competes for binding to the same or overlapping TMEM106B region as the TM3, TM9, TM10, TM11, TM12, TM13, TM18, TM19, TM21, TM24, TM25, TM32, TM35, TM37, TM42, TM45, TM48, TM54, TM59, TM60, TM61, and/or TM76 antibodies; Bin 3: competes for binding to the same or overlapping TMEM106B region as the TM7, TM15, TM83, and/or TM84 antibodies; Bin 4: competes for binding to the same or overlapping TMEM106B region as the TMS, TM28, TM29, TM30, TM63, TM64, TM72, TM78, TM80, TM86, and/or TM88 antibodies; Bin 5: does not bind to a truncated TMEM106B comprising amino acids 122-210 of SEQ ID NO:1
Details: for epitope bin: competition for binding to truncated GST-TMEM106B (amino acids 122-210); for Binding Community/Bin: epitope bin number, pre-mix binning on truncated GST-TMEM106B
Procedure: (§1) Monoclonal anti-TMEM106B antibodies were immobilized to a CMD 50M chip (Xantec # SPMXCMD5OM lot# SCCMD50M0416). The running buffer was HBS-EP+ with 1 mg/mL BSA. The GST-TMEM106B (truncated, comprising amino acids 122-210 of SEQ ID NO:1) antigen was prepared at a final concentration of 55 nM (corresponding to 2 μg/mL) and mixed with the competing analyte anti-TMEM106B antibodies at a final concentration of 333 nM (corresponding to 50 μg/mL) or compared to a buffer control. Samples were injected for 5 minutes over the array and regenerated after every cycle with 1 minute of two parts Pierce IgG-Elution buffer (ThermoFisher Cat#21004) and 1 part of 10 mM Glycine, pH 2.0 (Carterra).
Anti-TMEM106B antibodies sorted into various competing bins and resulting binning profiles. […] Antibodies within Bin 3 or Bin 4 partially block Bin 2 antibodies.
as §1, with “SPMXCMD50M” for “SPMXCMD5OM”, “lmg/ml” for “1 mg/mL”, “(truncated)” for “(truncated, comprising amino acids 122-210 of SEQ ID NO:1)”, “μg/ml)” for “μg/mL)”

| Molecule | epitope bin | Binding Community/Bin |
| --- | --- | --- |
| B1 | Bin 2 | 2 |
| B2 | Bin 2 | 2 |
| B3 | Bin 2 | 2 |
| B4 | Bin 3 | 3 |
| B5 | Bin 2 | 2 |
| B6 | Bin 2 | 2 |
| B7 | Bin 2 | 2 |
| B8 | Bin 2 | 2 |
| B9 | Bin 2 | 2 |
| B10 | Bin 2 | 2 |
| B11 | Bin 2 | 2 |
| B12 | Bin 2 | 2 |
